Results published in patent publication US20140341917A1 (Merck KGaA, published 2014).

Tests used:
human PD-L1 [1] = molecular target: T1, human PD-L1 (human, UniProt Q9NZQ7 19-238, limits assumed); assay: Biacore kinetic profile
T1 construct: Protein used in the Biacore assays of 3.1

human PD-L1 [2] = molecular target: T1, human PD-L1; assay: Biacore; relative to A09-188-1

T1 sequence (Q9NZQ7 19-238 limits assumed): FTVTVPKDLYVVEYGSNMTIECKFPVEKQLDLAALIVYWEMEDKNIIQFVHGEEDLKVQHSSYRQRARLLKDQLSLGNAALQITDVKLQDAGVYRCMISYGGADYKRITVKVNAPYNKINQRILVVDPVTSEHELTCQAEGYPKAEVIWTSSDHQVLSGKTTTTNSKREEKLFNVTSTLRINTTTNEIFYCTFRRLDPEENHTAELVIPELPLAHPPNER

B1: A09-202-1 (antibody, human IgG1, lambda, V domains shown)
VH: EVQLLESGGGLVQPGGSLRLSCAASGFTFSMYMMMWVRQAPGKGLEWVSSIYPSGGITFYADSVKGRFTISRDNSKNTLYLQMNSLRAEDTAIYYCARIKLGTVTTVDYWGQGTLVTVSS
VL: QSALTQPASVSGSPGQSITISCTGTSSDVGGYNYVSWYQQHPGKAPKLMIYDVSNRPSGVSNRFSGSKSGNTASLTISGLQAEDEADYYCSSYTSSSTRVFGTGTKVTVLG
notes: also called VL-A31G
Q: For B1, which Kd (human PD-L1 [1]) is on record?
A: 4.15 nM

Q: What about the t½ (human PD-L1 [1]) of the same binder?
A: 0.313 h

Q: And the “Relative KD” value (human PD-L1 [2])?
A: 0.78

B2: A09-204-1 (antibody, human IgG1, lambda, V domains shown)
VH: EVQLLESGGGLVQPGGSLRLSCAASGFTFSIYIMFWVRQAPGKGLEWVSSIYPSGGITFYADTVKGRFTISRDNSKNTLYLQMNSLRAEDTAVYYCARIKLGTVTTVDYWGQGTLVTVSS
VL: QSALTQPASVSGSPGQSITISCTGTSSDVGAYNYVSWYQQHPGKAPKLMIYDVSNRPSGVSNRFSGSKSGNTASLTISGLQAEDEADYYCSSYTSSSTRVFGTGTKVTVLG
notes: positions counted from the N-terminus of the chain; also called VH-M31I, M33I, M35F, S63T, I93V
Q: How did the Kd (human PD-L1 [1]) turn out when B2 was run?
A: 0.1 nM

Q: And the t½ (human PD-L1 [1])?
A: 9.64 h

Q: And the “Relative KD” value (human PD-L1 [2])?
A: 0.02

B3: A09-220-1 (antibody, human IgG1, lambda, V domains shown)
VH: EVQLLESGGGLVQPGGSLRLSCAASGFTFSSYLMFWVRQAPGKGLEWVSSIYPSGGITFYADTVKGRFTISRDNSKNTLYLQMNSLRAEDTAVYYCARIKLGTVTTVDYWGQGTLVTVSS
VL: QSALTQPASVSGSPGQSITISCTGTSSDVGAYNYVSWYQQHPGKAPKLMIYDVSNRPSGVSNRFSGSKSGNTASLTISGLQAEDEADYYCSSYTSSSTRVFGTGTKVTVLG
notes: also called VH-M31S, M33L, M35F, S63T, I93V
Q: How did the t½ (human PD-L1 [1]) turn out when B3 was run?
A: 1.14 h

B4: A09-243-2 (antibody, human IgG1, lambda, V domains shown)
VH: EVQLLESGGGLVQPGGSLRLSCAASGFTFSIYLMMWVRQAPGKGLEWVSSIYPSGGITFYADTVKGRFTISRDNSKNTLYLQMNSLRAEDTAVYYCARIKLGTVTTVDYWGQGTLVTVSS
VL: QSALTQPASVSGSPGQSITISCTGTSSDVGGYNYVSWYQQHPGKAPKLMIYDVSNRPSGVSNRFSGSKSGNTASLTISGLQAEDEADYYCSSYTSSSTRVFGTGTKVTVLG
notes: also called VL-A31G; VH-M31I, M33L, S63T, I93V
Q: B4 was tested. Which t½ (human PD-L1 [1]) did it give?
A: 1.42 h

B5: A09-213-1 (antibody, human IgG1, lambda, V domains shown)
VH: EVQLLESGGGLVQPGGSLRLSCAASGFTFSIYMMFWVRQAPGKGLEWVSSIYPSGGITFYADTVKGRFTISRDNSKNTLYLQMNSLRAEDTAVYYCARIKLGTVTTVDYWGQGTLVTVSS
VL: QSALTQPASVSGSPGQSITISCTGTSSDVGAYNYVSWYQQHPGKAPKLMIYDVSNRPSGVSNRFSGSKSGNTASLTISGLQAEDEADYYCSSYTSSSTRVFGTGTKVTVLG
notes: 193V read as I93V; also called VH-M31I, M35F, S63T, 193V
Q: B5 was tested. Which Kd (human PD-L1 [1]) did it give?
A: 2.51 nM

Q: What about the t½ (human PD-L1 [1]) of the same binder?
A: 0.462 h

Q: And the “Relative KD” value (human PD-L1 [2])?
A: 0.47

B6: A09-244-2 (antibody, human IgG1, lambda, V domains shown)
VH: EVQLLESGGGLVQPGGSLRLSCAASGFTFSSYIMFWVRQAPGKGLEWVSSIYPSGGITFYADTVKGRFTISRDNSKNTLYLQMNSLRAEDTAVYYCARIKLGTVTTVDYWGQGTLVTVSS
VL: QSALTQPASVSGSPGQSITISCTGTSSDVGGYNYVSWYQQHPGKAPKLMIYDVSNRPSGVSNRFSGSKSGNTASLTISGLQAEDEADYYCSSYTSSSTRVFGTGTKVTVLG
notes: also called VL-A31G; VH-M31S, M33I, M35F, S63T, I93V
Q: B6 was tested. Which Kd (human PD-L1 [1]) did it give?
A: 0.12 nM

Q: What about the t½ (human PD-L1 [1]) of the same binder?
A: 4.66 h

Q: And the “Relative KD” value (human PD-L1 [2])?
A: 0.03

B7: A09-211-1 (antibody, human IgG1, lambda, V domains shown)
VH: EVQLLESGGGLVQPGGSLRLSCAASGFTFSIYLMFWVRQAPGKGLEWVSSIYPSGGITFYADTVKGRFTISRDNSKNTLYLQMNSLRAEDTAVYYCARIKLGTVTTVDYWGQGTLVTVSS
VL: QSALTQPASVSGSPGQSITISCTGTSSDVGAYNYVSWYQQHPGKAPKLMIYDVSNRPSGVSNRFSGSKSGNTASLTISGLQAEDEADYYCSSYTSSSTRVFGTGTKVTVLG
notes: 193V read as I93V; also called VH-M31I, M33L, M35F, S63T, 193V
Q: Which t½ (human PD-L1 [1]) does the source give for B7 here?
A: 1.82 h

B8: A09-239-2 (antibody, human IgG1, lambda, V domains shown)
VH: EVQLLESGGGLVQPGGSLRLSCAASGFTFSIYLMFWVRQAPGKGLEWVSSIYPSGGITFYADTVKGRFTISRDNSKNTLYLQMNSLRAEDTAVYYCARIKLGTVTTVDYWGQGTLVTVSS
VL: QSALTQPASVSGSPGQSITISCTGTSSDVGGYNYVSWYQQHPGKAPKLMIYDVSNRPSGVSNRFSGSKSGNTASLTISGLQAEDEADYYCSSYTSSSTRVFGTGTKVTVLG
notes: also called VL-A31G; VH-M31I, M33L, M35F, S63T, I93V
Q: Which t½ (human PD-L1 [1]) does the source give for B8 here?
A: 2 h

B9: A09-240-2 (antibody, human IgG1, lambda, V domains shown)
VH: EVQLLESGGGLVQPGGSLRLSCAASGFTFSMYIMFWVRQAPGKGLEWVSSIYPSGGITFYADTVKGRFTISRDNSKNTLYLQMNSLRAEDTAVYYCARIKLGTVTTVDYWGQGTLVTVSS
VL: QSALTQPASVSGSPGQSITISCTGTSSDVGGYNYVSWYQQHPGKAPKLMIYDVSNRPSGVSNRFSGSKSGNTASLTISGLQAEDEADYYCSSYTSSSTRVFGTGTKVTVLG
notes: also called VL-A31G; VH-M33I, M35F, S63T, I93V
Q: Which Kd (human PD-L1 [1]) does the source give for B9 here?
A: 0.16 nM

Q: And the t½ (human PD-L1 [1])?
A: 4.1 h

Q: And the “Relative KD” value (human PD-L1 [2])?
A: 0.03

B10: A09-223-1 (antibody, human IgG1, lambda, V domains shown)
VH: EVQLLESGGGLVQPGGSLRLSCAASGFTFSSYMMFWVRQAPGKGLEWVSSIYPSGGITFYADTVKGRFTISRDNSKNTLYLQMNSLRAEDTAVYYCARIKLGTVTTVDYWGQGTLVTVSS
VL: QSALTQPASVSGSPGQSITISCTGTSSDVGAYNYVSWYQQHPGKAPKLMIYDVSNRPSGVSNRFSGSKSGNTASLTISGLQAEDEADYYCSSYTSSSTRVFGTGTKVTVLG
notes: also called VH-M31S, M35F, S63T, I93V
Q: B10 was tested. Which Kd (human PD-L1 [1]) did it give?
A: 3.62 nM

Q: What about the t½ (human PD-L1 [1]) of the same binder?
A: 0.225 h

Q: What about the “Relative KD” value (human PD-L1 [2]) of the same binder?
A: 0.68
